PMC3901395, “Multivalent interactions of the SUMO-interaction motifs in RING finger protein 4 determine the specificity for chains of the SUMO” (Biochemical Journal, 2013)

Target: T1, mono-SUMO2 (UniProt P61956 12-93)
T1 construct: SUMO2-ΔN11 monomer (first 11 residues missing) ending with the C-terminal GG motif and a stop codon; The methods describe the monomers from the pGEX-4T2 plasmids as ΔN11; also called SUMO2-ΔN11 monomer; source: E. coli Rosetta 2(DE3)pLysS, purified (glutathione beads, thrombin cleavage, anion exchange, SEC)
T1 sequence (P61956 12-93): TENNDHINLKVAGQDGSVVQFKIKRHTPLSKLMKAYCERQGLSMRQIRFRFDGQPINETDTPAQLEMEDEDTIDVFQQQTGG
Assay: ITC; VP-ITC or ITC200; 25°C; ITC buffer (50 mM Tris/HCl, pH 7.5, 150 mM NaCl, 2 mM DTT, 5% glycerol); SUMOs titrated into a solution of the RNF4 construct or peptide (legends of Figures 1B, 2B); 20–30 injections up to 2–3-fold molar excess; values averaged from two to six titrations
Settings: both partners purified

B1: single PIAS1 peptide (peptide)
chain: KVEVIDLTIDSSSDEEEEEP
modifications: exact peptide ends are only in Figure 2A; limits set around the VIDLT core plus C-terminal acidic flank; termini unknown
Kd: 16 µM
